Reference: publication PMC9166816, “RNF219 regulates CCR4-NOT function in mRNA translation and deadenylation” (Scientific Reports, 2022)

Target: CCR4-NOT complex (human (endogenous in human cell lines), UniProt A5YKK6 1-2376; Q9NZN8 1-540; O75175 1-753; Q9H9A5 1-744; Q9UKZ1 1-510)
Assay: cell-based or functional assay

Binder	Renilla/Firefly luciferase ratio (RL/FL) of the 5BoxB reporter with tethered NHA-RNF219-Id (lambdaN-HA tagged form of the allele)	Renilla/Firefly luciferase ratio (RL/FL) of the 5BoxB reporter with tethered NHA-RNF219
RNF219-Id, CCR4-NOT complex interaction defective RNF219 allele (natural protein) MAQTVQNVTLSLTLPITCHICLGKVRQPVICINNHVFCSICIDLWLKNNSQCPACRVPITPENPCKEIIGGTSESEPMLSHTVRKHLRKTRLELLHKEYEDEIDCLQKEVEELKSKNLSLESQIKTILDPLTLVQGNQNEDKHLVTDNPSKINPETVAEWKKKLRTANEIYEKVKDDVDKLKEANKKLKLENGGLVRENLRLKAEVDNRSPQKFGRFAVAALQSKVEQYERETNRLKKALERSDKYIEELESQVAQLKNSSEEKEAMNSICQTALSADGKGSKGSEEDVVSKNQGDSARKQPGSSTSSSSHLAKPSSSRLCDTSSARQESTSKADLNCSKNKDLYQEQVEVMLDVTDTSMDTYLEREWGNKPSDCVPYKDEELYDLPAPCTPLSLSCLQLSTPENRESSVVQAGGSKKHSNHLRKLVFDDFCDSSNVSNKDSSEDDISRSENEKKSECFSSPKTGFWDCCSTSYAQNLDFESSEGNTIANSVGEISSKLSEKSGLCLSKRLNSIRSFEMNRTRTSSEASMDAAYLDKISVENSKSPCNNGFKSLDLDGLSKSSQGSEFLEEPDKLEEKTELNLSKGSLTNDQLENGSEWKPTSFFLLSPSDQEMNEDFSLHSSSCPVTNEIKPPSCLFQTEFSQGILLSSSHRLFEDQRFGSSLFKMSSEMHSLHNHLQSPWSTSFVPEKRNKNVNQSTKRKIQSSLSSASPSKATKS	1.5 RL/FL ratio	
lambdaN-peptide and HA-tagged RNF219 (NHA-RNF219) (natural protein) MAQTVQNVTLSLTLPITCHICLGKVRQPVICINNHVFCSICIDLWLKNNSQCPACRVPITPENPCKEIIGGTSESEPMLSHTVRKHLRKTRLELLHKEYEDEIDCLQKEVEELKSKNLSLESQIKTILDPLTLVQGNQNEDKHLVTDNPSKINPETVAEWKKKLRTANEIYEKVKDDVDKLKEANKKLKLENGGLVRENLRLKAEVDNRSPQKFGRFAVAALQSKVEQYERETNRLKKALERSDKYIEELESQVAQLKNSSEEKEAMNSICQTALSADGKGSKGSEEDVVSKNQGDSARKQPGSSTSSSSHLAKPSSSRLCDTSSARQESTSKADLNCSKNKDLYQEQVEVMLDVTDTSMDTYLEREWGNKPSDCVPYKDEELYDLPAPCTPLSLSCLQLSTPENRESSVVQAGGSKKHSNHLRKLVFDDFCDSSNVSNKDSSEDDISRSENEKKSECFSSPKTGFWDCCSTSYAQNLDFESSEGNTIANSVGEISSKLSEKSGLCLSKRLNSIRSFEMNRTRTSSEASMDAAYLDKISELDSMMSESDNSKSPCNNGFKSLDLDGLSKSSQGSEFLEEPDKLEEKTELNLSKGSLTNDQLENGSEWKPTSFFLLSPSDQEMNEDFSLHSSSCPVTNEIKPPSCLFQTEFSQGILLSSSHRLFEDQRFGSSLFKMSSEMHSLHNHLQSPWSTSFVPEKRNKNVNQSTKRKIQSSLSSASPSKATKS		0.307 RL/FL ratio
